The text below walks through data of paper PMC6026696, “A broader active site in Pyrococcus horikoshii CoA disulfide reductase accommodates larger substrates and reveals evidence of subunit asymmetry” (FEBS Open Bio, 2018).

In series [1] the target is T1, Pyrococcus horikoshii coenzyme A-disulfide reductase (phCoADR) (Pyrococcus horikoshii, UniProt O58308, C48S/Y65A/Y66A/P67G/H367G).
T1 construct: gene PH0572; recombinant in E. coli BL21(DE3); wild type from pET24d; quad mutant codon-optimized gene in pET21b+ with C-terminal His tag; FAD-containing homodimer
T1 sequence (O58308 whole entry C48S/Y65A/Y66A/P67G/H367G): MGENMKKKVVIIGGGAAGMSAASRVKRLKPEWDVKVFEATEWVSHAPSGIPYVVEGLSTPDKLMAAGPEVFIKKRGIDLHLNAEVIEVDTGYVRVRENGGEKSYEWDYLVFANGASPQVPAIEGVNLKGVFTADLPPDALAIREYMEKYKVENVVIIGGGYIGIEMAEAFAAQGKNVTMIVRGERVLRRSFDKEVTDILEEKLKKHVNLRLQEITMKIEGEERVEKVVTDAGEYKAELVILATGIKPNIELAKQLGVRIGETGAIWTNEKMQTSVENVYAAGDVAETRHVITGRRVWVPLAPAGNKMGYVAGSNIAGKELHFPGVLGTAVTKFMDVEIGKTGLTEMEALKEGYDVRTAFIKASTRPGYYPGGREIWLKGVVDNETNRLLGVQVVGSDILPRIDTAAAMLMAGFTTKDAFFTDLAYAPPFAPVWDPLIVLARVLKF
Briefly: anaerobic NADH titration, UV-visible spectra. The class given is biochemical. Particulars: 50 mM potassium phosphate, pH 7.5, room temperature.

For series [2], the target named is T2, Pyrococcus horikoshii coenzyme A-disulfide reductase (phCoADR) (Pyrococcus horikoshii, UniProt O58308, Y65A/Y66A/P67G/H367G).
T2 construct: gene PH0572; recombinant in E. coli BL21(DE3); wild type from pET24d; quad mutant codon-optimized gene in pET21b+ with C-terminal His tag; FAD-containing homodimer
Briefly: X-ray crystal structure, […] Å. It is filed as binding. Particulars: tightly bound CoA in substrate channel; mixed disulfide with C48 in oxidized enzyme (covalent).

Substrate in series [3]: CC(C)(COP(=O)(O)OP(=O)(O)OC[C@H]1O[C@@H](n2cnc3c(N)ncnc32)[C@H](O)[C@@H]1OP(=O)(O)O)[C@@H](O)C(=O)NCCC(=O)NCCSSCCNC(=O)CCNC(=O)[C@H](O)C(C)(C)COP(=O)(O)OP(=O)(O)OC[C@H]1O[C@@H](n2cnc3c(N)ncnc32)[C@H](O)[C@@H]1OP(=O)(O)O
In words: purified protein. It is filed as biochemical, Pyrococcus horikoshii. Particulars: 100 μM NADPH, 75 °C, 50 mM potassium phosphate, pH 7.5.

Substrate in series [4]: NC(=O)C1=CN([C@@H]2O[C@H](COP(=O)(O)OP(=O)(O)OC[C@H]3O[C@@H](n4cnc5c(N)ncnc54)[C@H](O)[C@@H]3O)[C@@H](O)[C@H]2O)C=CC1
Briefly: purified protein. It is filed as biochemical, Pyrococcus horikoshii. Particulars: 100 μM CoA disulfide, 75 °C, 50 mM potassium phosphate, pH 7.5.

Substrate in series [5]: NC(=O)C1=CN([C@@H]2O[C@H](COP(=O)(O)OP(=O)(O)OC[C@H]3O[C@@H](n4cnc5c(N)ncnc54)[C@H](OP(=O)(O)O)[C@@H]3O)[C@@H](O)[C@H]2O)C=CC1
In words: purified protein. The class given is biochemical, Pyrococcus horikoshii. Particulars: 100 μM CoA disulfide, 75 °C, 50 mM potassium phosphate, pH 7.5.

For `NC(=O)C1=CN([C@@H]2O[C@H](COP(=O)(O)OP(=O)(O)OC[C@H]3O[C@@H](n4cnc5c(N)ncnc54)[C@H](O)[C@@H]3O)[C@@H](O)[C@H]2O)C=CC1` [NADH], the “anaerobic NADH titration, UV-visible spectra” value in series [1] is given as “Anaerobic titration of the quad‐C48S mutant showed immediate reduction of FAD”.
As to `CC(C)(COP(=O)(O)OP(=O)(O)OC[C@H]1O[C@@H](n2cnc3c(N)ncnc32)[C@H](O)[C@@H]1OP(=O)(O)O)[C@@H](O)C(=O)NCCC(=O)NCCS` [CoA], the “X-ray crystal structure, 3.6 Å” value in series [2] is on record as “CoA is depicted as sticks where carbon is green, nitrogen blue, oxygen red”.

B1: Pyrococcus horikoshii coenzyme A-disulfide reductase (phCoADR) (Pyrococcus horikoshii OT3) (protein)
chain: MGENMKKKVVIIGGGAAGMSAASRVKRLKPEWDVKVFEATEWVSHAPCGIPYVVEGLSTPDKLMYYPPEVFIKKRGIDLHLNAEVIEVDTGYVRVRENGGEKSYEWDYLVFANGASPQVPAIEGVNLKGVFTADLPPDALAIREYMEKYKVENVVIIGGGYIGIEMAEAFAAQGKNVTMIVRGERVLRRSFDKEVTDILEEKLKKHVNLRLQEITMKIEGEERVEKVVTDAGEYKAELVILATGIKPNIELAKQLGVRIGETGAIWTNEKMQTSVENVYAAGDVAETRHVITGRRVWVPLAPAGNKMGYVAGSNIAGKELHFPGVLGTAVTKFMDVEIGKTGLTEMEALKEGYDVRTAFIKASTRPHYYPGGREIWLKGVVDNETNRLLGVQVVGSDILPRIDTAAAMLMAGFTTKDAFFTDLAYAPPFAPVWDPLIVLARVLKF
notes: recombinant in E. coli BL21(DE3); wild type from pET24d; quad mutant codon-optimized gene in pET21b+ with C-terminal His tag; FAD-containing homodimer
With B1, the Km came to 52 ± 1 µM in “purified protein [3]” and 73 ± 12 µM in “purified protein [4]”. The kcat in “purified protein [3]” is 4.4 ± 1.3 s⁻¹; in the series “purified protein [4]” it was 2.3 ± 0.3 s⁻¹; in “purified protein [5]”, 5.8 ± 0.2 s⁻¹.

B2: Pyrococcus horikoshii coenzyme A-disulfide reductase (phCoADR) (Pyrococcus horikoshii OT3; H367G/P67G/Y65A/Y66A) (protein)
chain: MGENMKKKVVIIGGGAAGMSAASRVKRLKPEWDVKVFEATEWVSHAPCGIPYVVEGLSTPDKLMAAGPEVFIKKRGIDLHLNAEVIEVDTGYVRVRENGGEKSYEWDYLVFANGASPQVPAIEGVNLKGVFTADLPPDALAIREYMEKYKVENVVIIGGGYIGIEMAEAFAAQGKNVTMIVRGERVLRRSFDKEVTDILEEKLKKHVNLRLQEITMKIEGEERVEKVVTDAGEYKAELVILATGIKPNIELAKQLGVRIGETGAIWTNEKMQTSVENVYAAGDVAETRHVITGRRVWVPLAPAGNKMGYVAGSNIAGKELHFPGVLGTAVTKFMDVEIGKTGLTEMEALKEGYDVRTAFIKASTRPGYYPGGREIWLKGVVDNETNRLLGVQVVGSDILPRIDTAAAMLMAGFTTKDAFFTDLAYAPPFAPVWDPLIVLARVLKF
notes: as for B1
On to B2, for which the Km in the series “purified protein [3]” was found to be 57.0 ± 6.4 µM; in “purified protein [4]” it was 75 ± 6 µM; in “purified protein [5]” it was 16.4 ± 4.9 µM. Moreover, the kcat turned out to be 18.8 ± 2.8 s⁻¹ in “purified protein [3]”, 8.1 ± 1.4 s⁻¹ in the series “purified protein [4]” and 21.6 ± 2.3 s⁻¹ in the series “purified protein [5]”.

In general, Km refers to the substrate concentration at which the rate is half of its maximum. As usually defined, the kcat is the maximal rate divided by the concentration of active sites.
